Reference: the emibetuzumab library of Makowski et al. (2022)

B1: VH:VL chains; a variant is named by its letters at X, in order (parent)
chain 1: QVQLVQSGAEVKKPGASVKVSCKASGYTFTDYXMHWVRQAPGQGLEWMGXVNPNXXXTTYNQKFEGRVTMTTDTSTSTAYMELRSLRSDDTAVYYCARXNXLDXWGQGTTVTVSS
chain 2: DIQMTQSPSSLSASVGDRVTITCSVSSSVSSIYLHWYQQKPGKAPKLLIYSTSNLASGVPSRFSGSGSGTDFTLTISSLQPEDFATYYCQVYSGYPLTFGGGTKVEIK

Variants of: B1
Assay: yeast display scFab, FACS + sequencing
Method in brief: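 The non-specific binding call was based on sorted and sequenced yeast displaying a heavy-chain CDR mutant scFab library. Labelling used anti-Myc with biotinylated ovalbumin (260 μg/mL in PBSB, 3 h, room temperature) or soluble membrane proteins (130 μg/mL, 20 min on ice), and FACS collected the top 25% and bottom 10% of binders in two replicates. Positive meant present in ≥3 of 4 pooled positive samples and in no negatives, and negative meant the converse.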

Variant | non-specific binding call
DTATADWA | no binding
VTATADWA | no binding
ATATADWA | no binding
STATADWV | no binding
YTATGFAV | binds
YTEAADGA | no binding
STEASYLS | no binding
YTEEAAVD | no binding
FTEEGAGD | no binding
FTEEGAVD | no binding
FTEEGDGA | no binding
FTEEGDGV | no binding
DTEEGDVA | no binding
VTEEGDWV | no binding
DTEEGDWV | no binding
YTEEGDWV | no binding
STEEGDWV | no binding
VTEEGSSV | no binding
VTEEGSWV | no binding
VTEENDGY | no binding
YTEETDGF | binds
STEGDAGA | no binding
VTEGDAGA | no binding

Variant | non-specific binding call
VTEGDAGD | no binding
DTEGDAGD | no binding
YTEGDDGA | no binding
YTEGDDGD | no binding
YTEGDDGV | no binding
VTEGDDVF | no binding
YTEGDDWY | no binding
YTEGDFAV | no binding
VTEGDSGV | no binding
FTEGDSGY | no binding
VTEGGALA | no binding
VTEGGDAA | no binding
VTEGGDVA | no binding
VTEGGDVY | no binding
DTEGGSAS | no binding
VTEGGSVD | binds
STEGGSVY | no binding
YTEKGVGV | binds
YTEKTFSD | binds
YTERAAWA | no binding
DTERDDAV | no binding
VTERDDAV | no binding
YTERGDAV | no binding

Variant | non-specific binding call
YTERGDVD | no binding
YTERGDVY | no binding
YTERGFGV | no binding
VTERGSLD | no binding
DTERGSLV | no binding
YTERNFGV | binds
VTERSALD | binds
FTETGAGD | no binding
YTETGDSV | no binding
VTETGDSV | no binding
FTETGFGA | binds
VTETGSLV | no binding
FTETGSVD | no binding
ATGANAAV | no binding
ATGANAGD | no binding
VTGANDWV | no binding
DTGANDWV | no binding
ATGANSLD | no binding
YTGATAGA | binds
FTGEAAGD | no binding
FTGEADAS | no binding
DTGEADAS | no binding
YTGEADAS | no binding

Variant | non-specific binding call
VTGEADAS | no binding
STGEADAS | no binding
ATGEADAS | no binding
VTGEDAGA | no binding
VTGEDAGD | no binding
VTGEDAGS | no binding
YTGEDAVA | no binding
VTGEDAVV | no binding
VTGEDDAA | no binding
VTGEDDAV | no binding
VTGEDDGD | no binding
VTGEDDGS | no binding
VTGEDDVA | no binding
VTGEDDVD | no binding
VTGEDDVV | no binding
YTGEDDVY | no binding
DTGEDDVY | no binding
STGEDDVY | no binding
FTGEDDVY | no binding
ATGEDDVY | no binding
VTGEDDWD | no binding
VTGEDDWV | no binding
VTGEDDWY | no binding

Variant | non-specific binding call
VTGEDSGV | no binding
VTGEDSLA | no binding
VTGEDSLD | no binding
VTGEDSLV | no binding
VTGEDSSD | no binding
VTGEGALV | no binding
ATGEGDGV | no binding
YTGEGDGV | no binding
ATGEGDWS | no binding
YTGEGSWV | no binding
VTGESAAV | no binding
VTGESDWY | no binding
ATGGAAGD | no binding
FTGGAAGD | no binding
ATGGAALD | no binding
YTGGADAV | no binding
FTGGASGV chain 1 V111I | no binding
DTGGDAGV | no binding
VTGGDALA | no binding
FTGGDALA | no binding
VTGGDDGA | no binding
STGGDDGA | no binding
YTGGDDGF | no binding
